Read-outs that look alike come from different tables or passages of the source.
How the values were obtained:
LUXMYB [1] = molecular target: T1, LUXMYB (UniProt Q9SNB4 139-200); assay: EMSA
T1 sequence: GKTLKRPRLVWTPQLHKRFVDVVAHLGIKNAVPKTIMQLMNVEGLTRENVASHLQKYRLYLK

LUXFL = molecular target: T2, LUXFL (UniProt Q9SNB4 1-323); assay: EMSA
T2 sequence: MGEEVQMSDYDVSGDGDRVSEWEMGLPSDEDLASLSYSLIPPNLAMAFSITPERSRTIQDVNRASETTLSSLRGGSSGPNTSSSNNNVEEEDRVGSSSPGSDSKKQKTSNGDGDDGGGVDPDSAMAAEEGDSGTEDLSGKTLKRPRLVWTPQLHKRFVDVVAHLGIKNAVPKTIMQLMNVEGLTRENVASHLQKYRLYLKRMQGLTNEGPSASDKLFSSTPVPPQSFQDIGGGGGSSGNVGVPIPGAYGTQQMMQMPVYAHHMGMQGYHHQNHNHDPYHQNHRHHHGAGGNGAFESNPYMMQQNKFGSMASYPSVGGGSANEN

LUXMYB R146A = molecular target: T3, LUXMYB R146A (UniProt Q9SNB4 139-200, R146A); assay: EMSA
T3 sequence: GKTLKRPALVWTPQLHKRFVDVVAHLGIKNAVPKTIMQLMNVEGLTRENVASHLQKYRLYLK

LUXMYB [2] = molecular target: T1, LUXMYB; assay: crystal structure
[3] = molecular target: T4, EARLY FLOWERING 3, full-length (Arabidopsis, UniProt O82804 1-695); assay: native gel or EMSA
T4 sequence: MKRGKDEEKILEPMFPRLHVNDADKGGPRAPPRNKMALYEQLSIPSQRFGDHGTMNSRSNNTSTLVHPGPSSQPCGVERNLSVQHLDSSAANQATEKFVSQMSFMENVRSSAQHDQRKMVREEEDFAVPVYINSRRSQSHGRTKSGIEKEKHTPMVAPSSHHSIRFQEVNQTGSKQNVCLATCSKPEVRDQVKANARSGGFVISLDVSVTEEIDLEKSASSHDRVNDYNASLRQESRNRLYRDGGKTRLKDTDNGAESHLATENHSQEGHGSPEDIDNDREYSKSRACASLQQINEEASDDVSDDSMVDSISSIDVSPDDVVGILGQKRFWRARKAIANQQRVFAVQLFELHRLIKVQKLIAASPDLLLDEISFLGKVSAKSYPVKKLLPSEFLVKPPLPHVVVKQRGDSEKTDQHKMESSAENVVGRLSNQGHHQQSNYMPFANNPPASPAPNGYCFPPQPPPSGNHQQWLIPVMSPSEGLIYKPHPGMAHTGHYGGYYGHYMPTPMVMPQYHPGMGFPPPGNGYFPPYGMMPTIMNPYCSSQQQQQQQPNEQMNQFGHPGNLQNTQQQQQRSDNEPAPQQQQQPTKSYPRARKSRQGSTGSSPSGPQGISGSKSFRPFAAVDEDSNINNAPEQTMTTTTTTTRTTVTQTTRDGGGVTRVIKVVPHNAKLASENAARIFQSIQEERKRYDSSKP

LUXFL R146A = molecular target: T5, LUXFL R146A (UniProt Q9SNB4 1-323, R146A); assay: EMSA
T5 sequence: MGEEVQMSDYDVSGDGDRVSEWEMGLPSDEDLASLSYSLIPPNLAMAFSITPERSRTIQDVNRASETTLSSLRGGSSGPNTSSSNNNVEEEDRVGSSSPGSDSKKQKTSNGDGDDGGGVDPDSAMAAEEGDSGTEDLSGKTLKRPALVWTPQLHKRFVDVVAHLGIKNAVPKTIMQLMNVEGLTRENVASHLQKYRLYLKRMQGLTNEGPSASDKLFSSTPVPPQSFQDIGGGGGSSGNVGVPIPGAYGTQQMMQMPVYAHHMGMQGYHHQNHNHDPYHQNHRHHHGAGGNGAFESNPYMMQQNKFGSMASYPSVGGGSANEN

LUXMYB [4] = molecular target: T1, LUXMYB; assay: crystal structure; remark: listed apart in the source
ELF3 = molecular target: T6, ELF3 (UniProt O82804 1-695); assay: EMSA
T6 sequence: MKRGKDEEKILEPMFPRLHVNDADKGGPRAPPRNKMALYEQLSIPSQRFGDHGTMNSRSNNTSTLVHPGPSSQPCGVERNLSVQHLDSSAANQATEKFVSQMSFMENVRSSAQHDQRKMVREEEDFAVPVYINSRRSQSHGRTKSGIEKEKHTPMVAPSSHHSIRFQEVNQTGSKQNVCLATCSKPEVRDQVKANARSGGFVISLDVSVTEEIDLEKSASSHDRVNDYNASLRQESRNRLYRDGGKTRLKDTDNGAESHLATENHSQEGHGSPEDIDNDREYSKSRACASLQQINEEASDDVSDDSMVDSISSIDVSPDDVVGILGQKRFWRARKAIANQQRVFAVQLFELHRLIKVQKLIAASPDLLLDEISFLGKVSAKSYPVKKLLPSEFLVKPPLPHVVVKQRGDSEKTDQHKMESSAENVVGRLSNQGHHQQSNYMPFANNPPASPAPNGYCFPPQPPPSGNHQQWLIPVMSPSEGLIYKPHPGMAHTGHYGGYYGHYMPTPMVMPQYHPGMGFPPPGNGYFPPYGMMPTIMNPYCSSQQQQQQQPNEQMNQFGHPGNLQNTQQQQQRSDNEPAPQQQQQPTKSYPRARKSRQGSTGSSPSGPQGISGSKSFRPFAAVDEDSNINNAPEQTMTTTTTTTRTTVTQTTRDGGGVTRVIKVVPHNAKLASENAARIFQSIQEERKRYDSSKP

LUXFL;ELF3;ELF4 = molecular target: T7, LUXFL;ELF3;ELF4 (Arabidopsis thaliana?;Arabidopsis …, UniProt Q9SNB4;O82804;O04211 1-323;1-695;1-111, ||); assay: EMSA
T7 sequence 1: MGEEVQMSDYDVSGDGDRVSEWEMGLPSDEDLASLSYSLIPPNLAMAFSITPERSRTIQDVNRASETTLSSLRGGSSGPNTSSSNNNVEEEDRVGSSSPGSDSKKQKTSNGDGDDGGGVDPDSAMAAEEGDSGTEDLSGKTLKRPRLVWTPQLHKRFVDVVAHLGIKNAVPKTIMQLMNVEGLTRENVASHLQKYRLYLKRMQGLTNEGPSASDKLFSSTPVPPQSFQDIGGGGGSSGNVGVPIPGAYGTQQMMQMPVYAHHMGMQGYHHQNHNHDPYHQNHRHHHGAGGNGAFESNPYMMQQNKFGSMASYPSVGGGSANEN
T7 sequence 2: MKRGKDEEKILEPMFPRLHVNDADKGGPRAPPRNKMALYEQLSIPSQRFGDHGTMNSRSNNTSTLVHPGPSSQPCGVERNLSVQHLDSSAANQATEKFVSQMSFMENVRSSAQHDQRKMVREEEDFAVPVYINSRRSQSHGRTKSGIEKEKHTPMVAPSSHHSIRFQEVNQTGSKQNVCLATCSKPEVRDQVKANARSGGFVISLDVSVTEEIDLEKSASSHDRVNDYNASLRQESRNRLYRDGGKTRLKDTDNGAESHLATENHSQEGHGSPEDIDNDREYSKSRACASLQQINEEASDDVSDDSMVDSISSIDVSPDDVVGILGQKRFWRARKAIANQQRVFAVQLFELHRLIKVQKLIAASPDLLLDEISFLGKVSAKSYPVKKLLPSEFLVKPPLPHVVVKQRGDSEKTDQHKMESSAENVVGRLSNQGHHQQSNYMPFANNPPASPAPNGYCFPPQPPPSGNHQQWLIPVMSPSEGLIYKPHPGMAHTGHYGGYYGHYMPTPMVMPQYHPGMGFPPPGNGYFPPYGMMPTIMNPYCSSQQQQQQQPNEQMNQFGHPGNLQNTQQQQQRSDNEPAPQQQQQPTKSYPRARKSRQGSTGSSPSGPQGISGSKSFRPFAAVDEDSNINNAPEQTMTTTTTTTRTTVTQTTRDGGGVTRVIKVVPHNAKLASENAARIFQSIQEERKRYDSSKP
T7 sequence 3: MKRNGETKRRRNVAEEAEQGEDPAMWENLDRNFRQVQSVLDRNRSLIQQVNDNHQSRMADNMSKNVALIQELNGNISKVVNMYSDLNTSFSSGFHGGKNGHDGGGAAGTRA

ELF4 = molecular target: T8, ELF4 (UniProt O04211 1-111); assay: EMSA
T8 sequence: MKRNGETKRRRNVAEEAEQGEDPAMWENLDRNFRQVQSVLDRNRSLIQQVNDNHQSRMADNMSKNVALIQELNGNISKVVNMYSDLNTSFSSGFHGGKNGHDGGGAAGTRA

Binder	Kd (LUXMYB [1])	Kd (LUXFL)	Kd (LUXMYB R146A)	Kd (LUXFL R146A)	further results
Oligo 5 (ATATTCGA) (dsDNA) DNA 1: ATGATGTCTTCTCGAATATTCGATAAAAATGGTGTTG DNA 2: CAACACCATTTTTATCGAATATTCGAGAAGACATCAT	43 ± 4.2 nM	178 ± 3.5 nM	137 ± 13 nM		
crystal 10-mer AGATACGC (dsDNA) DNA 1: TAGATACGCA DNA 2: ATGCGTATCT					binding result (LUXMYB [2]): binds
EARLY FLOWERING 4 (natural protein) MKRNGETKRRRNVAEEAEQGEDPAMWENLDRNFRQVQSVLDRNRSLIQQVNDNHQSRMADNMSKNVALIQELNGNISKVVNMYSDLNTSFSSGFHGGKNGHDGGGAAGTRA					binding result [3]: binds
Oligo 4 (GGATCCGA) (dsDNA) DNA 1: ATGATGTCTTCTCGGATCCGATAAAAATGGTGTTG DNA 2: CAACACCATTTTTATCGGATCCGAGAAGACATCAT	17 ± 2.1 nM	118 ± 10.6 nM	120 ± 1 nM	164 ± 4.2 nM	
crystal 10-mer ATATTCGA (dsDNA) DNA 1: TATATTCGAA DNA 2: ATTCGAATAT					binding result (LUXMYB [4]): binds
Oligo 1 (PRR9 36 bp) (dsDNA) DNA 1: ATGATGTCTTCTCAAGATTCGATAAAAATGGTGTTG DNA 2: CAACACCATTTTTATCGAATCTTGAGAAGACATCAT	37 ± 2.9 nM	93 ± 5.8 nM	50 ± 2.4 nM	105 ± 11.8 nM	binding result (ELF3): no binding; binding result (LUXFL;ELF3;ELF4): binds; binding result (ELF4): no binding
Oligo 3 (AAGATCTT) (dsDNA) DNA 1: ATGATGTCTTCTCAAGATCTTATAAAAATGGTGTTG DNA 2: CAACACCATTTTTATAAGATCTTGAGAAGACATCAT	14 ± 1.8 nM	93 ± 3.5 nM	63 ± 3.1 nM	204 ± 6.7 nM	
Oligo 2 (AGATACGC) (dsDNA) DNA 1: ATGATGTCTTCTCAAGATACGCTAAAAATGGTGTTG DNA 2: CAACACCATTTTTAGCGTATCTTGAGAAGACATCAT	6.5 ± 1.4 nM	98 ± 2.9 nM	50 ± 1.8 nM	336 ± 4.8 nM	
